Reference: the DeepSol protein solubility set

Assay: soluble on expression in E. coli; label from the status in PepcDB or PDB records

**Q.** For “GHMSVYHHILLAVDFSSEDSQVVQKVRNLASQIGARLSLIHVLDNIPMPDTPYGTAIPLDTETTYDAMLDVEKQKLSQIGNTLGIDPAHRWLVWGEPREEIIRIAEQENVDLIVVGSHGRHGLALLLGSTANSVLHYAKCDVLAVRLRDD”, which “soluble on expression in E. coli” value is on record?
**A.** soluble

**Q.** With “GIDPFTKMGGDRRPITILTSDLRGFTSTSEGLNPEEVVKVLNIYFGKMADVITHHGGTIDEFMGDGILVLFGAPTSQQDDALRAVACGVEMQLALREVNQQVTGLGLQPLEMGIGINTGEVVVGNIGSEKRTKYGVVGAQVNLTYRIESYTTGGQIFISSTTLEAAGDRVHVNGNRTVQPKGVKDPVVIWDVAGVGEPYNLSLAVEEQ” as the sequence, how does the “soluble on expression in E. coli” value read?
**A.** soluble

**Q.** Which “soluble on expression in E. coli” value does the source give for “GIIEAHCHVGIQEEKRGFEGNDCNEMTNPVTPYLRALDGINPMDSAFYTALTAGITGIMVGPGSANVVGGQWMFLKTYGRAIDKMVVLQPSAMKIAFGENPKANYDKKNMMPSTRIAIAAMLREELFEAQQYYEKRKNAEKSGDSFNKEFRKECWVPVFDKKIPLKAHVHRADDILTAIRIAKEFNLNLTLDHCTEGHLVAKEIKESGFPAIVGPTLTSRNKIETQYADFKTAGILHNEGVKVAITTDHPVTRIQDLLICAGLAAKEGLGIEEGLKAITINPAEICNVANRVGSIEVNKDADIAIFDGNPMETFTKTMYTIINGEIVY” here?
**A.** not soluble

**Q.** With “GIPRNSSTGAKTAKSDKLKVVATNSIIADMTKAIAGDKIDLHSIVPIGQDPHEYEPLPEDAEKTSNADVIFYNGINLEDGGQAWFTKLVKNAQKTKNKDYFAVSDGIDVIYLEGASEKGKEDPHAWLNLENGIIYSKNIAKQLIAKDPKNKETYEKNLKAYVAKLEKLDKEAKSKFDAIAENKKLIVTSEGCFKYFSKAYGVPSAYIWEINTEEEGTPDQISSLIEKLKVIKPSALFVESSVDRRPMETVSKDSGIPIYSEIFTDSIAKKGKPGDSYYAMMKWNLDKISEGLAK” as the sequence, how does the “soluble on expression in E. coli” value read?
**A.** soluble

**Q.** Which “soluble on expression in E. coli” value does the source give for “GKLHEPYEIIVIDVPSEYQGNVTQLLATRKGLMQSMSTTPGSDWIRMEFRIPARGLIGFRTQFMTETRGTGIANSYSDGMDVWAGEIKGRAHGSLVADRSGQITAYALTQLADRGSFFVEPGTETYEGVV” here?
**A.** not soluble

**Q.** Which “soluble on expression in E. coli” value does the source give for “GLDTIPTTYVDAGSVFGKTGDAEKVLNGGWNYLMETFNSYANPGYGAMLRANDAMGSDVVLNSKYGFRTHNEFSAIYGKGGTNTLSWLLAYRVINDCNGVLDNIDAAEGTQADRNRIKGQALALRGFLYLHLASCYSFAIDKDPDAVCAPIYTQSTDETIAAEGKPASSVSEVYAQSINDLEEALELIPETYVRDAKHKIDNEVVLGILSRACLYARQWEKAKTYSDKLLAKDNYLMTESEYKAGFNSVDNKEWIWGHAQTNDQSNASYQFHYLDTTTKGSYYYSFNVDPYFRDLFEDGDYRKEMLFWATDPGADVESAAYVWMRNSKFRFRDIENQLGDIVLMRVAEIYLINAEAKAHLNDPDAINKLNDLKTARGAKTIHTNLSQQDLLETIWLERRKELWGEGFSLIDIIRNQQTVVRNAYPEGPIDYIYTDENGQTHTLKKKTQGHRFFNFPDKSAFCPNSKYYLYRITDSEELANKNLYKDHPKLSIYTK” here?
**A.** soluble

**Q.** With “GLESFSLTSHEKKFGVNIEFSDVNFSYPKQTNHRTLKSINFFIPSGTTCALVGHTGSGKSTIAKLLYRFYDAEGDIKIGGKNVNKYNRNSIRSIIGIVPQDTILFNETIKYNILYGKLDATDEEVIKATKSAQLYDFIEALPKKWDTIVGNKGMKLSGGERQRIAIARCLLKDPKIVIFDEATSSLDSKTEYLFQKAVEDLRKNRTLIIIAHRLSTISSAESIILLNKGKIVEKGTHKDLLKLNGEYAEMWNMQSGGNDI” as the sequence, how does the “soluble on expression in E. coli” value read?
**A.** soluble

**Q.** Which “soluble on expression in E. coli” value does the source give for “GLGGEPVIVYADRGRSVIAAVEGRVEDLVRGDMIVVQADSNGEEVVYIASSPTEPPEVYRFKGGDVERVSSINRWVVEEFRLYKPRRVEVEAEGEVVEGWYIEPEGEGRKPLILFIHGGPKGMYGYGFYGEMQLFASEGFTVAYANPRGSDGYEEEFADIRGRYGDTDYKQLMKFLDAVVEGSDVDEGKMAVTGISYGGYMTNVIVTKTSRFRAAVSENGIADWIADFWAADIGYWFDPDQIGGTPLDNLEEYVKRSPAFHAKNVNTPVMLIHSMEDYRCFIDQALAMHTALKVNGKESFLVVFTKGSHGHSILASPRHRRKRLELKLKWIKEKLG” here?
**A.** not soluble

**Q.** With “GLPDSAFEHDGQLTKRDVRAITLARLAPVPGELLWDVGAGCGSIGIEWMRAHPTCRAMAIEADEGRQQLIEFNRDALGVPGLQLVRGSAPQALSGLERPDAIFIGGGVTRIGVLETCWEQLRSGGRLVANAVTLQSEAALMAWRERHGGELTRIHVAHAQPLGEFDTWRQALPITLLDVVKP” as the sequence, how does the “soluble on expression in E. coli” value read?
**A.** not soluble
